Columns and labels:
[1] = target: T1, Human serum albumin (HSA) (human, UniProt P02768 25-609); assay: SPR (Biacore 3000), HSA immobilised on CM5 chip, Nb as analyte
T1 construct: In SPR the HSA was immobilised on a CM5 chip
Protocol: Nb Affinity measurement by surface plasmon resonance (SPR) Surface plasmon resonance (SPR, Biacore 3000 system, GE Healthcare) was used to measure Nb affinities. Briefly, a protein antigen such as GST, OMP25 PDZ domain or human serum albumin was immobilized to the flow channels of an activated CM5 sensor-chip. Protein analytes were diluted to 10-30 µg/ml in 10 mM sodium acetate, pH 4.5, and injected into the SPR system at 5 µl/min for 420 s. The surface was then blocked by 1 M ethanolamine-HCl (pH 8.5). For each Nb analyte, a series of dilution spanning approximately 1,000 fold was injected in duplicate, with HBS-EP+ running buffer (GE-Healthcare) containing 2 mM DTT, at a flow rate of 20- 30 µl/min for 120- 180 s, followed by a dissociation time of 5 - 20 mins based on dissociation rate. Between each injection, the sensor chip surface was regenerated with low pH buffer containing 10 mM glycine-HCl (pH 1.5- 2.5) at a flow rate of 40-50 µl/min for 30 s, or high pH buffer of 20-40 mM NaOH (pH 12- 13) at 40-50 µl/min for 30 s. Binding sensorgrams for each Nb were processed and analyzed using BIA evaluation by fitting with 1:1 Langmuir model or 1:1 Langmuir model with mass transfer.

[2] = target: T1, Human serum albumin (HSA); assay: affinity as cited in the structural example (SPR)

T1 sequence (P02768 25-609 limits assumed, form in doubt): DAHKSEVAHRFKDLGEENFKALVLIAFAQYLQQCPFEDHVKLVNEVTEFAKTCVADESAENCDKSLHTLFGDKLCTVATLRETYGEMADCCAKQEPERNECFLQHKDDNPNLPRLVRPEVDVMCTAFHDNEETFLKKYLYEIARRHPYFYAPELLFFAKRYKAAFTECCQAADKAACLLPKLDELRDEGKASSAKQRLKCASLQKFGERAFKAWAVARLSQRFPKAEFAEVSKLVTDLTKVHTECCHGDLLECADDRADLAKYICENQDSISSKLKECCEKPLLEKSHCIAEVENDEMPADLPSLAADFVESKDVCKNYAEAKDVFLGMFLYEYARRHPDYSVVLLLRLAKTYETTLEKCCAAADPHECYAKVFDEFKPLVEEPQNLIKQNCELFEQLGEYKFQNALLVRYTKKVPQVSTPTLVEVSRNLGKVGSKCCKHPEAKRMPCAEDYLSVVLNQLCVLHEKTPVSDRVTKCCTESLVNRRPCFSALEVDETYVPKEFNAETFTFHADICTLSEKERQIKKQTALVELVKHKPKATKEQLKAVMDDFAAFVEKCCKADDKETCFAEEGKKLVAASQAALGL

- Kd [1]: 166 pM
- koff [1]: 2.75e-05 s⁻¹
- kon [1]: 166000 M⁻¹ s⁻¹
- Kd [2]: 160 pM
B1: Nb80 (VHH)
VHH: EVQLVESGGGLVQAGGSLRLSCTASGRTFTPYTMGWFRQAPGKEREFVASILWSGNNRDYADSVKGRFAISRDNAKNTAYLQMTSLKPEDTAVYYCAAGDGLGFYRSVNQYDYWGQGTQVTVS
notes: His-tagged nanobody from E. coli
